Laboratory results from FireProtDB (doi:10.1002/cbic.201402128).
“And” between values parts separate entries of the source, which are not always exact repeats. Identical values can stand only once.

B1: Haloalkane dehalogenase, D4Z2G1 (parent)
chain: MSLGAKPFGEKKFIEIKGRRMAYIDEGTGDPILFQHGNPTSSYLWRNIMPHCAGLGRLIACDLIGMGDSDKLDPSGPERYAYAEHRDYLDALWEALDLGDRVVLVVHDWGSALGFDWARRHRERVQGIAYMEAIAMPIEWADFPEQDRDLFQAFRSQAGEELVLQDNVFVEQVLPGLILRPLSEAEMAAYREPFLAAGEARRPTLSWPRQIPIAGTPADVVAIARDYAGWLSESPIPKLFINAEPGALTTGRMRDFCRTWPNQTEITVAGAHFIQEDSPDEIGAAIAAFVRRLRPA

Variants of: B1
Settings: Sphingobium indicum (strain DSM 16413 / CCM 7287 / MTCC 6362 / UT26 / NBRC 101211 / UT26S); pH 7.5; Thermal; fluorescence; Na-Hepes 50 mM; reversible: no; structure 1MJ5; whole UniProt chain shown

Row | Variant | Tm | change of melting temperature, mutant - wild type (higher = more stable)
1 | A296R | 50.5 °C | -0.5 °C
2 | A296H | 50 °C | -1 °C
3 | R254L | 49.5 °C | -1.5 °C
4 | V268C S278C | 48.5 °C and 46 °C | -2.5 °C and -3 °C
5 | A269P | 50 °C | -1 °C
6 | A271V | 62 °C | 11 °C
7 | A271I | 60.5 °C | 9.5 °C
8 | Q275P | 48 °C | -3 °C
9 | D255Q | 50.5 °C | -0.5 °C
10 | D255K | 50.5 °C | -0.5 °C
11 | D255A | 51.5 °C | 0.5 °C
12 | C257A | 48.5 °C | -2.5 °C
13 | T264Q | 50 °C | -1 °C
14 | T264L | 50.5 °C | -0.5 °C
